According to publication PMC11134550:

Columns and labels:
Experiment in all cases: SPR; Biacore T200; integrin (approx. 1000 RU) or TGFβRII (approx. 400 RU) amine-coupled to CM5 chip; galectin-3 2-fold serial dilutions injected (19.5-5000 nM integrins, 156.3-20000 nM TGFβRII), 30 μl/min, 20 °C, contact 120 s; HBS-P+ pH 7.4 ±1 mM MnCl2; steady-state fit, one-site specific binding; minimum number of binding sites = maximum response/Rmax
[1] = molecular target: recombinant human integrin αvβ1 (glycosylated) (human) (UniProt P06756)
[2] = molecular target: recombinant human integrin αvβ5 (glycosylated) (human) (UniProt P06756)
[3] = molecular target: recombinant human integrin αvβ6 (glycosylated) (human) (UniProt P06756)

In the case of “recombinant human galectin-3 (expressed and purified for SPR) (from UniProt P17931 1-250) (natural protein)”, the binding response relative to αvβ6 [1] is reported as 2 fold, the stoichiometry N (individual galectin-3 proteins) [1] is reported as > 16 and the binding response relative to αvβ6 [2] is reported as 2 fold. The stoichiometry N (individual galectin-3 proteins) [2] was > 16 and the stoichiometry N (individual galectin-3 proteins) [3] was > 8.
